“And” between values parts separate entries of the source, which are not always exact repeats. Identical values can stand only once.
B1: FAF1-UBX(550–649) (domain or fragment, murine, UniProt P54731 550-649, looked up)
chain: EAIRLSLEQALPPEPKEENAEPVSKLRIRTPSGEFLERRFLASNKLQIVFDFVASKGFPWDEFKLLSTFPRRDVTQLDPNKSLLEVNLFPQETLFLQAKE
notes: Fas-associated factor 1 (FAF1), residues 550–649 (UBX domain), in pGEx; also called UBX domain of FAF1; source: E. coli Rosetta 2 (autoinduction), purified (GSTrap, GST cleaved with HRV 3C, size-exclusion chromatography)
B2: N-terminally His-tagged full-length FAF1 (natural protein, murine, UniProt P54731 1-649, looked up)
chain: MASNMDREMILADFQACTGIENIDEAITLLEQNNWDLVAAINGVIPQENGILQSDFGGETMPGPTFDPASHPAPASTPSSSAFRPVMPSRQIVERQPRMLDFRVEYRDRNVDVVLEDSCTVGEIKQILENELQIPVPKMLLKGWKTGDVEDSTVLKSLHLPKNNSLYVLTPDLPPPSSSSHAGALQESLNQNFMLIITHREVQREYNLNFSGSSTVQEVKRNVYDLTSIPVRHQLWEGWPASATDDSMCLAESGLSYPCHRLTVGRRTSPVQTREQSEEQSTDVHMVSDSDGDDFEDASEFGVDDGEVFGMASSTLRKSPMMPENAENEGDALLQFTAEFSSRYGDCHPVFFIGSLEAAFQEAFYVKARDRKLLAIYLHHDESVLTNVFCSQMLCAESIVSYLSQNFITWAWDLTKDTNRARFLTMCNRHFGSVIAQTIRTQKTDQFPLFLIIMGKRSSNEVLNVIQGNTTVDELMMRLMAAMEIFSAQQQEDIKDEDEREARENVKREQDEAYRLSLEADRAKREAHEREMAEQFRLEQIRKEQEEEREAIRLSLEQALPPEPKEENAEPVSKLRIRTPSGEFLERRFLASNKLQIVFDFVASKGFPWDEFKLLSTFPRRDVTQLDPNKSLLEVNLFPQETLFLQAKE
modifications: NanoTemper495-N-hydroxysuccinimide blue/red dye label (in the MST only)
notes: Fas-associated factor 1 (FAF1), full length, in pProEx; the truncations end at residue 649; N-terminally His-tagged FAF1 was used for all experiments except nanogold labelling; also called Fas-associated factor 1; His-tagged FAF1; source: held on the nickel column from cleared lysate in the pull-down; not shown: His tag, N-terminal, kept
B3: FAF1-CC-UBX(491–649) (domain or fragment, murine, UniProt P54731 491-649, looked up)
chain: QEDIKDEDEREARENVKREQDEAYRLSLEADRAKREAHEREMAEQFRLEQIRKEQEEEREAIRLSLEQALPPEPKEENAEPVSKLRIRTPSGEFLERRFLASNKLQIVFDFVASKGFPWDEFKLLSTFPRRDVTQLDPNKSLLEVNLFPQETLFLQAKE
notes: Fas-associated factor 1 (FAF1), residues 491–649 (coiled-coil and UBX domains), in pGEx; also called coiled-coil and UBX domains of FAF1; source: E. coli Rosetta 2 (autoinduction), purified (GSTrap, GST cleaved with HRV 3C, size-exclusion chromatography)

How the values were obtained:
[1] = target: T1, C-terminally His-tagged full-length p97 (residues 1–806) (murine, UniProt Q01853 1-806); assay: ITC; full-length p97 in the cell at 10–50 μM, FAF1 or FAF1 truncation as titrant at 7.5 to 10 times the cell concentration; 20 mM HEPES, 150 mM KCl, pH 7.4; 30 °C; average of two measurements; conditions: both partners purified
T1 construct: p97 (VCP), murine, full length, residues 1–806, in PET22b; Hexamer, with a minor dodecamer, by SV-AUC; also called VCP; valosin-containing protein
T1 sequence (Q01853 whole entry, the tested form may be a part): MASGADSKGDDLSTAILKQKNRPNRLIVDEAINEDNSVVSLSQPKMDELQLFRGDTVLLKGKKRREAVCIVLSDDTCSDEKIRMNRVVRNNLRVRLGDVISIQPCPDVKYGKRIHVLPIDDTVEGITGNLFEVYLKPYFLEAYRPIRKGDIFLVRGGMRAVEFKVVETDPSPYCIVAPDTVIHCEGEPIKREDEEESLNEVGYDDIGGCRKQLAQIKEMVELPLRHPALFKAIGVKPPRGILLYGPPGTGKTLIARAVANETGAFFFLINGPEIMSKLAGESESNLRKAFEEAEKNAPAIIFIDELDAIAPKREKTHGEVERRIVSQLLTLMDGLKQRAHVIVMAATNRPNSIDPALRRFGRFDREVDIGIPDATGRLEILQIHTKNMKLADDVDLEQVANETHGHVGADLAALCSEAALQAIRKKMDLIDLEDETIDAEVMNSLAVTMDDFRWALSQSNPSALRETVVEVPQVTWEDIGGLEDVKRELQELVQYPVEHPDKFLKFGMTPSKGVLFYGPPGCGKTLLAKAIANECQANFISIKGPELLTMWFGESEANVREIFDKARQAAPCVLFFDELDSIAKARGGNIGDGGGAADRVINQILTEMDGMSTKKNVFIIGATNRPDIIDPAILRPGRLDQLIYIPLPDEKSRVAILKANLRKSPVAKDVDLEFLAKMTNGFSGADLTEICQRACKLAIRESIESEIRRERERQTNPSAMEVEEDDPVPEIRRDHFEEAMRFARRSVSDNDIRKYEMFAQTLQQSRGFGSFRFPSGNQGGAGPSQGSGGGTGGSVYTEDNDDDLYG

[2] = target: T1, C-terminally His-tagged full-length p97 …; assay: MST; 0.06 μM dye-labelled FAF1 kept constant, full-length p97 titrated between 135 and 0.0041 μM; 20 mM HEPES, 150 mM KCl, pH 7.4; 30 °C; average of two experiments, Hill equation fit; conditions: both partners purified
[3] = target: the molecule itself; assay: native MS; full-length FAF1 at 10 μM in 200 mM ammonium acetate pH 7.5; Q-ToF modified for high mass detection
[4] = target: the molecule itself; assay: cross-linking; 15 μM FAF1 or truncation in SEC buffer with ethyl glycol bissuccinimidyl succinate (EGS), 15 min at room temperature, stopped with Tris, SDS-PAGE

Binder	Kd [1]	stoichiometry N [1]	KD site 1 (two-site model) [1]	KD site 2 (two-site model) [1]	Kd [2]	stoichiometry N [3]	stoichiometry N [4]
B1	3.9 µM	0.98 ± 0.1 FAF1-UBX per p97					
B2	5.2 µM	0.8 ± 0.03 FAF1 per p97	0.8 µM	19 µM	0.13 µM	2 and 3	
B3	4.9 µM	0.89 ± 0.3 FAF1-CC-UBX per p97	0.7 µM	12 µM			3

Reference: article PMC4002113, “The p97-FAF1 Protein Complex Reveals a Common Mode of p97 Adaptor Binding*” (The Journal of Biological Chemistry, 2014)
